Experimental data published in PMC3552326.
Like-named read-outs stand apart in the source and are kept apart here.

How the values were obtained:
[1] = molecular target: Dns136-α-synuclein (Y136C, dansyl-labelled) (human) (UniProt P37840); test: other fluorescence titration
[2] = molecular target: Dns100-α-synuclein (L100C, dansyl-labelled) (human) (UniProt P37840); test: FRET or BRET
[3] = molecular target: Dns136-α-synuclein (Y136C, dansyl-labelled) (human) (UniProt P37840); test: FRET or BRET
[4] = molecular target: Dns136-α-synuclein (Y136C, dansyl-labelled) (human) (UniProt P37840); test: other fluorescence titration; remark: listed apart in the source
[5] = molecular target: Dns100-α-synuclein (L100C, dansyl-labelled) (human) (UniProt P37840); test: other fluorescence titration
[6] = molecular target: Dns136-α-synuclein (Y136C, dansyl-labelled) (human) (UniProt P37840); test: other fluorescence titration; remark: listed apart in the source
[7] = molecular target: α-synuclein peptide residues 118–140 containing C136, dansyl-labelled (DnsC23) (human) (UniProt P37840); test: other fluorescence titration
[8] = molecular target: Dns100-α-synuclein (L100C, dansyl-labelled) (human) (UniProt P37840); test: other fluorescence titration; remark: listed apart in the source

Kd [1]: 1 µM | <λ> shift [2]: 2 nm | <λ> shift [3]: 6 nm | Kd [4]: 11 µM | Kd [5]: 40 µM | Kd [6]: 8 µM | Kd [7]: 2 µM | Kd [8]: 1 µM
Substance: glucocerebrosidase (taliglucerase alfa, recombinant GCase) (from UniProt P04062 40-533) (enzyme)
